This passage reports IC50 and EC50 results from patent publication US20240301069A1.

The target in assay [1] is human PD-L1 full-length protein on CHO-hPD-L1 stable cells (human) (UniProt Q9NZQ7). Nature of the assay: flow cytometry blocking assay: antibody titrated on CHO-hPD-L1 cells; blocked ligand recombinant human CD80-hFc. On the technique in general: Flow cytometry measures light scatter and fluorescence of single cells or particles in a stream.
Assay [2] has the same target. Nature of the assay: flow cytometry blocking assay (method 1): antibody titrated on CHO-hPD-L1 cells; blocked ligand recombinant human PD-1-hFc.
For assay [3], the target named is macaque PD-L1 on CHO-cynoPD-L1 stable cells (macaque). Kind of assay: flow cytometry, antibody titration on CHO-cynoPD-L1 cells, MFI-APC.
macaque PD-L1 on CHO-cynoPD-L1 stable cells (macaque), sequence (Q9NZQ7 other isoform, or with tags, fused parts or gaps limits assumed): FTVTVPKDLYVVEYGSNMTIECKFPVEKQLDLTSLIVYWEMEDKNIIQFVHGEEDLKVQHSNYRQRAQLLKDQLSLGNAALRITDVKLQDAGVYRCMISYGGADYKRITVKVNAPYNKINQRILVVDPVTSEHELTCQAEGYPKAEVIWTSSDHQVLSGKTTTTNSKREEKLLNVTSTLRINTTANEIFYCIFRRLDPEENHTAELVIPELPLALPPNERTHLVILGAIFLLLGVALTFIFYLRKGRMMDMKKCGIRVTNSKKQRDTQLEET
For assay [4], the target named is human PD-L1 on IFNγ-stimulated A375 cells (human) (UniProt Q9NZQ7). Nature of the assay: flow cytometry, antibody titration on human IFNγ-stimulated A375 cells, MFI-APC.
human PD-L1 on IFNγ-stimulated A375 cells (human), sequence (Q9NZQ7 19-290): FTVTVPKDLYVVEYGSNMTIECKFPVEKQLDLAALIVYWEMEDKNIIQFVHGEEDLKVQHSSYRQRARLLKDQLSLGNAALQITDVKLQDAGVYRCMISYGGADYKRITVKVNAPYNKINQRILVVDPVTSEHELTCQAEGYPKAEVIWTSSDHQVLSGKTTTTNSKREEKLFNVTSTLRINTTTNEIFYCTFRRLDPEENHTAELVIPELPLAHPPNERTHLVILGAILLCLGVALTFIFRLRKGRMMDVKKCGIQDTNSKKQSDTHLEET
Assay [5] deals with recombinant human PD-L1 protein carrying a hFc label (human) (UniProt Q9NZQ7). Kind of assay: flow cytometry blocking assay (method 2): antibody titrated; binding of recombinant human PD-L1-hFc to PD-1 on CHO-hPD-1 cells is blocked.
recombinant human PD-L1 protein carrying a hFc label (human), sequence (Q9NZQ7 19-238): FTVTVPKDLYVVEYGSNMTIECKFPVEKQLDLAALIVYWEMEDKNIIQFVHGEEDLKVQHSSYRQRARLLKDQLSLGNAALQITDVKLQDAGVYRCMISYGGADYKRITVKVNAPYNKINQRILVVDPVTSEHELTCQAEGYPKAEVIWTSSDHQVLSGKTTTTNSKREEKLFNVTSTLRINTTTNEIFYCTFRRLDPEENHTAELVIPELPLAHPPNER
For assay [6], the target named is human PD-L1 full-length protein on CHO-hPD-L1 stable cells (human) (UniProt Q9NZQ7). Kind of assay: flow cytometry, antibody titration on CHO-hPD-L1 cells, MFI-APC.

Broadly, the IC50 is the midpoint of a concentration-inhibition curve. In general, EC50 refers to the concentration that produces a half-maximal response. A lower EC50 goes with an effect from little substance.

human PD-L1 full-length protein on CHO-hPD-L1 stable cells (human), sequence (Q9NZQ7 19-290 limits assumed): as the sequence (Q9NZQ7 19-290) above

Take “atezolizumab-mIgG1 (mIgG1 subtype) (antibody)”: the values for the IC50 in assay [1], in assay [2] and in assay [5] were 4.39 nM, 6.32 nM and 1.61 nM, respectively. Also, the EC50 came to 2.02 nM in assay [3], 0.121 nM in assay [4] and 0.984 nM in assay [6].
